Source: PMC3727925 (Molecular Biology of the Cell, 2013)

Target: T1, CHMP3 (human, UniProt Q9Y3E7 1-222)
T1 sequence (looked up): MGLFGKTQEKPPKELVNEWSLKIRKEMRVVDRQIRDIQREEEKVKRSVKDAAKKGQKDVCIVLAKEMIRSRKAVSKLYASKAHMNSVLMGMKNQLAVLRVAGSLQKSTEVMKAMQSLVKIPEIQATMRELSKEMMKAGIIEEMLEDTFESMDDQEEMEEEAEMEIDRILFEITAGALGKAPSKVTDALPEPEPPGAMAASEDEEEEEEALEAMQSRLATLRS
Test: negative-stain electron microscopy

binding result: binds
B1: CHMP2A (natural protein, human, UniProt O43633 1-222, looked up)
chain: MDLLFGRRKTPEELLRQNQRALNRAMRELDRERQKLETQEKKIIADIKKMAKQGQMDAVRIMAKDLVRTRRYVRKFVLMRANIQAVSLKIQTLKSNNSMAQAMKGVTKAMGTMNRQLKLPQIQKIMMEFERQAEIMDMKEEMMNDAIDDAMGDEEDEEESDAVVSQVLDELGLSLTDELSNLPSTGGSLSVAAGGKKAEAAASALADADADLEERLKNLRRD
